B2: GST-p67 fusion (natural protein, human, UniProt P19878 1-526, looked up)
chain: MSLVEAISLWNEGVLAADKKDWKGALDAFSAVQDPHSRICFNIGCMYTILKNMTEAEKAFTRSINRDKHLAVAYFQRGMLYYQTEKYDLAIKDLKEALIQLRGNQLIDYKILGLQFKLFACEVLYNIAFMYAKKEEWKKAEEQLALATSMKSEPRHSKIDKAMECVWKQKLYEPVVIPVGKLFRPNERQVAQLAKKDYLGKATVVASVVDQDSFSGFAPLQPQAAEPPPRPKTPEIFRALEGEAHRVLFGFVPETKEELQVMPGNIVFVLKKGNDNWATVMFNGQKGLVPCNYLEPVELRIHPQQQPQEESSPQSDIPAPPSSKAPGRPQLSPGQKQKEEPKEVKLSVPMPYTLKVHYKYTVVMKTQPGLPYSQVRDMVSKKLELRLEHTKLSYRPRDSNELVPLSEDSMKDAWGQVKNYCLTLWCENTVGDQGFPDEPKESEKADANNQTTEPQLKKGSQVEALFSYEATQPEDLEFQEGDIILVLSKVNEEWLEGECKGKVGIFPKVFVEDCATTDLESTRREV

Test [1] has as its target B2. The test can be described thus: pull-down.
The target of test [2] is 15N-labeled Tiam1 PDZ domain (human, UniProt Q13009 841-930). Nature of the test: NMR titration.
15N-labeled Tiam1 PDZ domain, sequence (Q13009 841-930): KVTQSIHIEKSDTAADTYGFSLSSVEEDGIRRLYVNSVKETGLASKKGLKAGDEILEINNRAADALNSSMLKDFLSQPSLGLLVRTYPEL
Test [3] has as its target His-tagged Tiam1 PHn-PHc (423–1406) (human, UniProt Q13009 423-1406). Nature of the test: pull-down.

Where no end group is shown, it is not given here. The star is where a group is joined. Dansyl = CN(C)c1cccc2c(S(=O)(=O)*)cccc12

His-tagged Tiam1 PHn-PHc (423–1406), sequence (Q13009 423-1406): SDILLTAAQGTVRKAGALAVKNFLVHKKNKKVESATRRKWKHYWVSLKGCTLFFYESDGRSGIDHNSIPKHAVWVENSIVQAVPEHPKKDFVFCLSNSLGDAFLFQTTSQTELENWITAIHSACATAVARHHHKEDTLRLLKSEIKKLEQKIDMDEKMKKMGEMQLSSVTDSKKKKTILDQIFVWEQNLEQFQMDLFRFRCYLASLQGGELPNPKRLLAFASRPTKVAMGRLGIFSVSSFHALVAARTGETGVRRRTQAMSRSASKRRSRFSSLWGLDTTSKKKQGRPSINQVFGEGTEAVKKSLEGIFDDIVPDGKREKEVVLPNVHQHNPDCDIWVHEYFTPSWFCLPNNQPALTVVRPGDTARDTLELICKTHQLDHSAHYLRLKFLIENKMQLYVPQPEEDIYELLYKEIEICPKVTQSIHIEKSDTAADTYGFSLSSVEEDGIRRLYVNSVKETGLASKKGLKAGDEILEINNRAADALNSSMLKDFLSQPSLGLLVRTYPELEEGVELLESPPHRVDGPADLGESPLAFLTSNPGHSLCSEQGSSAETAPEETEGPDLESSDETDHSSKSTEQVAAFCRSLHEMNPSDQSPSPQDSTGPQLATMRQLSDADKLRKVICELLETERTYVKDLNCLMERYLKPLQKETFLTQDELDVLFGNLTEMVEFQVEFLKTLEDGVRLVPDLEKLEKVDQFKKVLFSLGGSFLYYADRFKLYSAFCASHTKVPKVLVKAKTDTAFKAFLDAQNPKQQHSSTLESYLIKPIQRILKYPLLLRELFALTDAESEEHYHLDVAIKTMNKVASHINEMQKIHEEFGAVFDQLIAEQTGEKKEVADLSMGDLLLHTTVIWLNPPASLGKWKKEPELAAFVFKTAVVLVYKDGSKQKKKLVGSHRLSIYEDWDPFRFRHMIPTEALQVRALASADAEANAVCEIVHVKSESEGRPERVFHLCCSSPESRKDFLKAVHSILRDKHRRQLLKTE

B1: His-tagged Tiam1 PHn-CC-Ex domain (429–702) (domain or fragment, human, UniProt Q13009 429-702, looked up)
chain: AAQGTVRKAGALAVKNFLVHKKNKKVESATRRKWKHYWVSLKGCTLFFYESDGRSGIDHNSIPKHAVWVENSIVQAVPEHPKKDFVFCLSNSLGDAFLFQTTSQTELENWITAIHSACATAVARHHHKEDTLRLLKSEIKKLEQKIDMDEKMKKMGEMQLSSVTDSKKKKTILDQIFVWEQNLEQFQMDLFRFRCYLASLQGGELPNPKRLLAFASRPTKVAMGRLGIFSVSSFHALVAARTGETGVRRRTQAMSRSASKRRSRFSSLWGLDTT
Regarding B1, the binding result in test [1] was “binds”.
In general, Kd refers to the equilibrium constant for the complex coming apart. As for Dansyl-MLAELYGSDPREELLY [human VE-cadherin peptide (654–669; MLAELYGSDPREELLY)], in test [2], the Kd amounted to 980 ± 150 µM.
With B2, the binding result in test [3] was “binds”.
